Test [1] has as its target T1, human IgE (human, UniProt P01854-1 1-428).
T1 construct: whole IgE; also called hIgE
As to the kind of experiment: SPR, Ab captured, IgE analyte, pH 5.8, 25C. On the procedure: (§1) An appropriate amount of Protein A/G (ACTIGEN) was fixed onto Sensor chip CM4 (GE Healthcare) by the amine coupling method to capture the antibodies of interest. Next, human IgE was made to interact with the antibodies captured onto the sensor chip by injecting a diluted IgE solution and a running buffer (used as a reference solution). For the running buffer, either of the buffers (1) and (2) above was used, and human IgE was diluted using the respective buffer. To regenerate the sensor chip, 10 mM glycine-HCl at pH 1.5 was used. All measurements were carried out at 25° C. KD (M) for human IgE was calculated for each antibody based on the association rate constant ka (1/Ms) and dissociation rate constant kd (1/s), which are kinetic parameters calculated from the sensorgrams obtained by the measurements. The BIACORE T100 Evaluation Software (GE Healthcare) was used to calculate each parameter.
(In general: Surface plasmon resonance follows binding to a sensor surface in real time, without labels.)

The target of test [2] is T1, human IgE. As to the kind of experiment: SPR, Ab captured, IgE analyte, pH 7.4, 25C. On the procedure:
as §1

Test [3] concerns the target T2, soluble human FcγRIIb (human, UniProt P31994 43-217, limits assumed).
T2 construct: soluble His-tagged form; also called hFcγRIIb
T2 sequence (looked up): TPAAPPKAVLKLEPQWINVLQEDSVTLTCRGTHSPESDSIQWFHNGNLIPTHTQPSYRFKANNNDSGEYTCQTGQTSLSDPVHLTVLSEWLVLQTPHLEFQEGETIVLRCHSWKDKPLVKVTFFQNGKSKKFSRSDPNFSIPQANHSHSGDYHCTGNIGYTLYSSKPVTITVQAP
As to the kind of experiment: SPR, Ab-IgE complex over captured hFcγRIIb, pH 7.4, 25C. As to the method:
(§2) Regarding the produced Fc region variant-containing antibodies, binding assays between soluble human FcγRIIb and antigen-antibody complexes were performed using BIACORE T200 (GE Healthcare). Soluble human FcγRIIb (NCBI accession NM_004001.3) was produced in the form of a His-tagged molecule by a method known in the art. An appropriate amount of an anti-His antibody was fixed onto Sensor chip CM5 (GE Healthcare) by the amine coupling method using a His capture kit (GE Healthcare) to capture human FcγRIIb. Next, an antibody-antigen complex and a running buffer (as a reference solution) were injected, and interaction was allowed to take place with the human FcγRIIb captured onto the sensor chip. 20 mM N-(2-Acetamido)-2-aminoethanesulfonic acid, 150 mM NaCl, 1.2 mM CaCl₂, and 0.05% (w/v) Tween 20 at pH 7.4 was used as the running buffer, and the respective buffer was also used to dilute the soluble human FcγRIIb. To regenerate the sensor chip, 10 mM glycine-HCl at pH 1.5 was used. All measurements were carried out at 25° C. Analyses were performed based on binding (RU) calculated from sensorgrams obtained by the measurements, and relative values when the binding amount of Ab1H/Ab1L (original Ab1) was defined as 1.00 are shown. To calculate the parameters, the BIACORE T100 Evaluation Software (GE Healthcare) was used.

For test [4], the target named is T2, soluble human FcγRIIb. Described as above. The method in brief:
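Antibody–antigen complexes injected over His-tagged soluble human FcγRIIb captured via anti-His antibody on CM5 chip. Running buffer 20 mM ACES, 150 mM NaCl, 1.2 mM CaCl₂, 0.05% Tween 20, pH 7.4; regeneration 10 mM glycine-HCl pH 1.5. Binding (RU) expressed relative to original Ab1H/Ab1L set at 1.00.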
The source holds these as a separate data set.

The target in test [5] is T2, soluble human FcγRIIb. The description is as above. As to the method: as §2
The source holds these as a separate data set.

For test [6], the target named is T3, human IL-8 (human, UniProt P10145 23-99, limits assumed).
T3 construct: also called hIL-8
T3 sequence: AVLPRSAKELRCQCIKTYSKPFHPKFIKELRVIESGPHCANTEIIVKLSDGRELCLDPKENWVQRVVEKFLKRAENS
As to the kind of experiment: SPR pH 7.4 40C; 50C 1 week in PBS against initial. As to the method: The levels of human IL-8 binding to the modified antibodies were analyzed using BIACORE T200 (GE Healthcare). Measurements were carried out at 40° C. by using 0.05% tween20, 40 mM ACES, and 150 mM NaCl at pH 7.4 as the running buffer.
An appropriate amount of Protein A/G (PIERCE) was immobilized onto the Sensor chip CM4 (GE Healthcare) by the amine coupling method and the antibodies of interest was captured. Next, a diluted human IL-8 solution or a running buffer (used as a reference solution) was injected to allow interaction of the antibodies captured onto the sensor chip with human IL-8. The running buffer was also used to dilute human IL-8. To regenerate the sensor chip, 25 mM NaOH and 10 mM glycine-HCl (pH 1.5) were used. The measured binding level of human IL-8 and the amount of antibodies captured at that binding level were extracted using the BIACORE T200 Evaluation Software (GE Healthcare).
The amount of human IL-8-binding per 1000 RU of the amount of antibody captured was calculated for the initial samples and the samples for the thermal acceleration test. Furthermore, the ratio of the human IL-8-binding level for the initial samples to that for samples of the thermal acceleration test was calculated.

In test [7] the target is T4, soluble cynomolgus monkey FcγRIIIa (cynomolgus monkey, UniProt Q8SPW2 17-208, limits assumed).
T4 construct: soluble His-tagged form; also called cynoFcγRIIIa
T4 sequence (Q8SPW2 17-208 limits assumed): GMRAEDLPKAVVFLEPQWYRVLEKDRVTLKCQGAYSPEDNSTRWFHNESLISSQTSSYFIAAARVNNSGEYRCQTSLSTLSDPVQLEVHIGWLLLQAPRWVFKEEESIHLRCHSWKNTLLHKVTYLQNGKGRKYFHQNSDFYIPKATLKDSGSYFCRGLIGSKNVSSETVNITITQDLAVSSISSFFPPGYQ
As to the kind of experiment: SPR, Ab captured on Protein L, 20C. As to the method: (§3) Soluble FcγRIa and FcγRIIIa in both human and cynomolgus monkey were produced in the form of His-tagged molecules by methods known to those of ordinary skill in the art. An appropriate amount of rProtein L (BioVision) was immobilized onto the Sensor chip CM4 (GE Healthcare) by the amine coupling method and antibody of interest was captured. Next, soluble FcγRIa or FcγRIIIa was injected with a running buffer (used as a reference solution), and was made to interact with the antibodies captured onto the sensor chip. HBS-EP+ (GE Healthcare) was used as the running buffer, and HBS-EP+ was also used to dilute the soluble FcγRIa or FcγRIIIa. To regenerate the sensor chip, 10 mM glycine-HCl at pH 1.5 was used. All measurements were carried out at 20° C.

The next test deals with T5, soluble human FcγRIa (human, UniProt P12314 16-292, limits assumed).
T5 construct: soluble His-tagged form; also called hFcγRIa
T5 sequence (P12314 16-292 limits assumed): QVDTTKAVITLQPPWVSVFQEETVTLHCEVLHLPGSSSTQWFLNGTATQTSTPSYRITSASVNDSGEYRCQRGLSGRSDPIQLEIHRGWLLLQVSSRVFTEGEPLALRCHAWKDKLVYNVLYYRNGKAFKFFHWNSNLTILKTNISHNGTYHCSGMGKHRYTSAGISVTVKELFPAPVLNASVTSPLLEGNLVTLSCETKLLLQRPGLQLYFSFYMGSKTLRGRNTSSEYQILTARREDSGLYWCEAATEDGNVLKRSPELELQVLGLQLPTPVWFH
As to the kind of experiment: SPR, Ab captured on Protein L, 20C. On the procedure:
as §3

The next test addresses T6, soluble human FcγRIIIa (human, UniProt P08637 17-208, limits assumed).
T6 construct: soluble His-tagged form; also called hFcγRIIIa
As to the kind of experiment: SPR, Ab captured on Protein L, 20C. On the procedure: as §3

The target of test [8] is T3, human IL-8. As to the kind of experiment: SPR pH 5.8 37C. On the procedure: (§4) The following two running buffers were used, and measurements were carried out at the respective temperatures: (1) 0.05% tween20, 40 mM ACES, 150 mM NaCl, pH 7.4, 40° C.: and (2) 0.05% tween20, 40 mM ACES, 150 mM NaCl, pH 5.8, 37° C.
(§5) An appropriate amount of Protein A/G (PIERCE) was immobilized onto the Sensor chip CM4 (GE Healthcare) by the amine coupling method and the antibodies of interest were captured. Next, a diluted human IL-8 solution or a running buffer (used as a reference solution) was injected to allow interaction of the antibodies captured onto the sensor chip with human IL-8. For the running buffer, either one of the above-mentioned solutions was used, and the respective buffers were also used to dilute human IL-8. To regenerate the sensor chip, 25 mM NaOH and 10 mM glycine-HCl (pH 1.5) were used. KD (M) of each antibody for human IL-8 was calculated based on the association rate constant kon (1/Ms) and dissociation rate constant koff (1/s) which are kinetic parameters calculated from sensorgrams obtained by the measurements. The BIACORE T200 Evaluation Software (GE Healthcare) was used to calculate each parameter.

The target in test [9] is T3, human IL-8. As to the kind of experiment: SPR pH 7.4 40C. As to the method: as §4, §5

Where a chain is given by its changes, count along the chain named. Where two headings read alike, the source gives them in different places.

T1 sequence (P01854 other isoform, or with tags, fused parts or gaps): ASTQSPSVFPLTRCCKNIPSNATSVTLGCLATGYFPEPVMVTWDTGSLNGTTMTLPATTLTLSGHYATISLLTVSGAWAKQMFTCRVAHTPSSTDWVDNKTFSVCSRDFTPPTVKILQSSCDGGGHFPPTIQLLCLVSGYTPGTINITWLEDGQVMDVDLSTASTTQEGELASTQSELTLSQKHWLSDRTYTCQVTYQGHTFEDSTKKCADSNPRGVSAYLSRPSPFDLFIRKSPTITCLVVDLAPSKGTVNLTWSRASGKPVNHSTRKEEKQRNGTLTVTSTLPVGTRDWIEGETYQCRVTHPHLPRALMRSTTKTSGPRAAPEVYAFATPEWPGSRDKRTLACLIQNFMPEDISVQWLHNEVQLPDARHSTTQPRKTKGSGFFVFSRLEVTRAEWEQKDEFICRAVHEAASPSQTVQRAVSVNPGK
T6 sequence (P08637 17-208 limits assumed): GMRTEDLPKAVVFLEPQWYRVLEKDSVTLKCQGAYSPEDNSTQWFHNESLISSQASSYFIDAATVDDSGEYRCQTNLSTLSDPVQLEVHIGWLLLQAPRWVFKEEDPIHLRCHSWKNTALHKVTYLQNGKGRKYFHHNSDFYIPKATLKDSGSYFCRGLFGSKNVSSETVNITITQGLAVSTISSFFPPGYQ

B1: Ab1 (antibody, human IgG1, kappa)
heavy: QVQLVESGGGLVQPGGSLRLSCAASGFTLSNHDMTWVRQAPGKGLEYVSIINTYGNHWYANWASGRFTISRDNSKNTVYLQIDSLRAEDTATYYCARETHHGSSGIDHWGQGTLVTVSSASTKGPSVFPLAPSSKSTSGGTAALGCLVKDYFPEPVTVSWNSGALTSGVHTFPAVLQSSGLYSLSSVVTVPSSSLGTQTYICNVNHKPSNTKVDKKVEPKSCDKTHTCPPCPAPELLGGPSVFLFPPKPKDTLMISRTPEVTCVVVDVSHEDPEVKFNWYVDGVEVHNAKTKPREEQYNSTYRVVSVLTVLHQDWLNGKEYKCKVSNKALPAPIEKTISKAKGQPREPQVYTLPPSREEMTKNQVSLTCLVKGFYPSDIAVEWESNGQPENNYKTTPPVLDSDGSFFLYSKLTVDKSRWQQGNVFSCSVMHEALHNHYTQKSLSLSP
light: DIQMTQSPSSVSASVGDRVTITCQASESIYSGLAWYQQKPGQPPKLLIYDHSTLASGVPSRFSGSGSGTEYALTISSLQPEDFATYYCQHADYAHHSDNVFGGGTKVEIKRTVAAPSVFIFPPSDEQLKSGTASVVCLLNNFYPREAKVQWKVDNALQSGNSQESVTEQDSKDSTYSLSSTLTLSKADYEKHKVYACEVTHQGLSSPVTKSFNRGEC
notes: also called Ab1H/Ab1L; original Ab1; copies: 2 + 2
For orientation: Kd means the constant that tells how readily two partners part at equilibrium. A word on the koff: it is a measure of how fast the partners let go of each other. Broadly, the kon is the second-order rate constant of association. On to B1, for which the results for the dissociation constant Kd in the test with human IgE [1] and with human IgE [2] were 2400 nM and 2.3 nM, respectively. Also, the koff with human IgE [1] was determined as 0.039 s⁻¹; in the test with human IgE [2], 0.006 s⁻¹. In addition, the kon with human IgE [1] was 16000 M⁻¹ s⁻¹; with human IgE [2], 2.7e+06 M⁻¹ s⁻¹. Moreover, the “BIACORE fold (relative binding, original Ab1=1.00)” value with soluble human FcγRIIb [3], with soluble human FcγRIIb [4] and with soluble human FcγRIIb [5] was 1 fold in each case.

B2: H1009/L395 (antibody, human IgG1, kappa)
heavy: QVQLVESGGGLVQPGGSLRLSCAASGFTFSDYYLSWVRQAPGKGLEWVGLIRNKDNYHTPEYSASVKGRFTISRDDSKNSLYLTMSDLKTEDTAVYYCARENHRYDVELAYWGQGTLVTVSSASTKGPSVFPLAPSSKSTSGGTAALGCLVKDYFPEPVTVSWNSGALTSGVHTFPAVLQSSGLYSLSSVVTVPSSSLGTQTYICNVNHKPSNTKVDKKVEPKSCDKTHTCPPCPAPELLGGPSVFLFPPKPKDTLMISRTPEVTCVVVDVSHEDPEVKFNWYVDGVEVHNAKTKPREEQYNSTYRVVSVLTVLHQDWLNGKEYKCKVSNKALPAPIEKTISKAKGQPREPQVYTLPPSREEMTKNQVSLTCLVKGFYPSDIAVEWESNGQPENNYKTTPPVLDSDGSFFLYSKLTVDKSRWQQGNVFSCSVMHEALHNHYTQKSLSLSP
light: DIQMTQSPSSLSASVGDRVTITCRASEIIYSYLAWYQQKPGKAPKLLIYKAKTHADGVPSRFSGSGSGTDFTFTISSLQPEDIATYYCKHHFGFPRTFGQGTKVEIKRTVAAPSVFIFPPSDEQLKSGTASVVCLLNNFYPREAKVQWKVDNALQSGNSQESVTEQDSKDSTYSLSSTLTLSKADYEKHKVYACEVTHQGLSSPVTKSFNRGEC
notes: also called H1009/L0395; H1009/L395-IgG1
On to B2, for which the “Ratio of IL-8 Amount (Thermal Acceleration/Initial)” value with human IL-8 [6] worked out at 0.64.

B3: H1009/L395-F1886s (antibody)
heavy: QVQLVESGGGLVQPGGSLRLSCAASGFTFSDYYLSWVRQAPGKGLEWVGLIRNKDNYHTPEYSASVKGRFTISRDDSKNSLYLTMSDLKTEDTAVYYCARENHRYDVELAYWGQGTLVTVSSASTKGPSVFPLAPSSKSTSGGTAALGCLVKDYFPEPVTVSWNSGALTSGVHTFPAVLQSSGLYSLSSVVTVPSSSLGTQTYICNVNHKPSNTKVDKKVEPKSCDKTHTCPPCPAPELRRGPKVFLFPPKPKDTLMISRTPEVTCVVVDVSHEDPEVKFNWYVDGVEVHNAKTKPREEQYNSTYRVVSVLTVLHQDWLNGKEYKCKVSNKALPAPIEKTISKAKGQPREPQVYTLPPSREEMTKNQVSLTCLVKGFYPSDIAVEWESNGQPENNYKTTPPVLDSDGSFFLYSKLTVDKSRWQQGNVFSCSVLHEALHAHTTRKELSLSP
light: B2 light
notes: copies: 2 + 2
On to B3, for which the binding result (in test [7]; with soluble human FcγRIa; in the test with soluble human FcγRIIIa) was “no binding” each time.

B4: H1009/L395-F1974m (antibody)
heavy: B3 heavy with K244S, A332G, A335S, P336S
light: B2 light
notes: copies: 2 + 2
As for B4, the binding result (in [7]; with soluble human FcγRIa; in the test with soluble human FcγRIIIa) was “no binding” throughout.

B5: H1023/L0395 (antibody, human IgG1, kappa, name in Kabat numbering, V domains shown)
VH: QVQLVESGGGLVQPGGSLRLSCAASGFTFSDYYLSWVRQAPGKGLEWVGLIRNKDNGYHPEYSASVKGRFTISRDDSKNSLYLTMSDLKTEDTAVYYCARENHRYDVELAYWGQGTLVTVSS
VL: DIQMTQSPSSLSASVGDRVTITCRASEIIYSYLAWYQQKPGKAPKLLIYKAKTHADGVPSRFSGSGSGTDFTFTISSLQPEDIATYYCKHHFGFPRTFGQGTKVEIKR
In the test with human IL-8 [8], B5 showed a Kd of 0.092 µM and a koff of 0.018 s⁻¹. In addition, the Kd with human IL-8 [9] was determined as 0.076 nM.

B6: H1023/L0442 (antibody, human IgG1, kappa, name in Kabat numbering, V domains shown)
VH: B5 VH
VL: B5 VL with S31E
Consider B6, for which the Kd with human IL-8 [8] worked out at 7.1 µM; with human IL-8 [9], 0.12 nM. In the test with human IL-8 [8], this molecule displayed a dissociation rate constant (koff) of 0.017 s⁻¹.

B7: H1000/L0442 (antibody, human IgG1, kappa, name in Kabat numbering, V domains shown)
VH: B5 VH with D31E, G57H, Y58H, H59T
VL: B5 VL with S31E
In the case of B7, the Kd with human IL-8 [8] turned out to be 71 µM.

B8: H1040/L0442 (antibody, human IgG1, kappa, name in Kabat numbering, V domains shown)
VH: B5 VH with D31E, G57H, Y58H
VL: B5 VL with S31E
Take B8: in the test with human IL-8 [6], the “Ratio of IL-8 Amount (Thermal Acceleration/Initial)” value amounted to 0.49.

B9: H1050/L0395 (antibody, human IgG1, kappa, name in Kabat numbering, V domains shown)
VH: B5 VH with D31E, G57Y, Y58H, H59T
VL: B5 VL
The molecule B9 displayed a Kd with human IL-8 [8] of 7.7 µM.

For the origin of these results see US20180258163A1 (Chugai, published 2018).
